We go through 2 molecules from patent US20240139329A1 (CALIFORNIA INSTITUTE OF TECHNOLOGY, published 2024).

Experiment [1] has as its target T1, mouse LRP6-E3E4 (C-half, AA 629-1244) tagged with Fc (mouse IgG2a) (mouse, UniProt O88572 629-1244).
T1 construct: not shown: mouse IgG2a Fc
T1 sequence: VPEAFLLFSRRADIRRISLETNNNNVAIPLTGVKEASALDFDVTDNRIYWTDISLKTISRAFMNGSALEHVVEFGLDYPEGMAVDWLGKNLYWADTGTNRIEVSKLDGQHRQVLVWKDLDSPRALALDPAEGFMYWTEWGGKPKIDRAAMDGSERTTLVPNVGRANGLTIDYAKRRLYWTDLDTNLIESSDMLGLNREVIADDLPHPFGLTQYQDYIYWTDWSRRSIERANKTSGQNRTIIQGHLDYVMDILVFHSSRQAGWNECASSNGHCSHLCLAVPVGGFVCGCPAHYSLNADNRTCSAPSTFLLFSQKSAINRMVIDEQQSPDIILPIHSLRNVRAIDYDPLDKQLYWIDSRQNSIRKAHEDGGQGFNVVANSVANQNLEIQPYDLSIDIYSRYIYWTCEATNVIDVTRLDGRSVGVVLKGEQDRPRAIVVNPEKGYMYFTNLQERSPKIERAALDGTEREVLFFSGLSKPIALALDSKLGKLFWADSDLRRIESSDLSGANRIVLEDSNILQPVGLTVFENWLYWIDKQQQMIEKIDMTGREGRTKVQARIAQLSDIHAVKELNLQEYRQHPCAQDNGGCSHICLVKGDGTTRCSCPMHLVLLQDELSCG
In words: SPR, target-Fc captured on protein A chip, AAV analyte (FIG. 14D). In general terms: Surface plasmon resonance follows binding to a sensor surface in real time, without labels.

Experiment [2] addresses T2, mouse LRP6-E1E2 (N-half, AA 20-628) tagged with Fc (mouse IgG2a) (mouse, UniProt O88572 20-628).
T2 construct: not shown: mouse IgG2a Fc
T2 sequence: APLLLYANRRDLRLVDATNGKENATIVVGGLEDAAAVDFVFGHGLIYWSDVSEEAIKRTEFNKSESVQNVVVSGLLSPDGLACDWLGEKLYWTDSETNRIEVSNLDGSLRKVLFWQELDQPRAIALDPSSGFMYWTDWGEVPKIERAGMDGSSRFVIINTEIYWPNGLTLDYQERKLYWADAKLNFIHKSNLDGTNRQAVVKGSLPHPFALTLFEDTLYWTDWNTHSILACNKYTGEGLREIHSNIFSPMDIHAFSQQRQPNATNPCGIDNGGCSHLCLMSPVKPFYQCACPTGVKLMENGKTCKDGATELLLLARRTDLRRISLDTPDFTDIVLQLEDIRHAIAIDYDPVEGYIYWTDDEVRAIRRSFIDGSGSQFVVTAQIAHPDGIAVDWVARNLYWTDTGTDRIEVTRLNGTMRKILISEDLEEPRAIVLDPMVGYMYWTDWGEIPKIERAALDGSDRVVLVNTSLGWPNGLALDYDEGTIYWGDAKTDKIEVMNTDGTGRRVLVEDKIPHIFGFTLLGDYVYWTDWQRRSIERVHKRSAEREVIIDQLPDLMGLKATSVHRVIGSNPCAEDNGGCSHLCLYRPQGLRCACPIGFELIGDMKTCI
The description is as above.

For experiment [3], the target named is T3, human low-density lipoprotein receptor-related protein 6 (LRP6), on cells (human, UniProt O75581 20-1613).
T3 construct: also called hLRP6
In words: cell microarray screen.

Experiment [4] concerns the target T4, mouse LRP6 extracellular domain (AA20-1366) tagged with 6×His tag (mouse, UniProt O88572 20-1366).
T4 construct: also called full length extracellular domain of mouse LRP6
T4 sequence: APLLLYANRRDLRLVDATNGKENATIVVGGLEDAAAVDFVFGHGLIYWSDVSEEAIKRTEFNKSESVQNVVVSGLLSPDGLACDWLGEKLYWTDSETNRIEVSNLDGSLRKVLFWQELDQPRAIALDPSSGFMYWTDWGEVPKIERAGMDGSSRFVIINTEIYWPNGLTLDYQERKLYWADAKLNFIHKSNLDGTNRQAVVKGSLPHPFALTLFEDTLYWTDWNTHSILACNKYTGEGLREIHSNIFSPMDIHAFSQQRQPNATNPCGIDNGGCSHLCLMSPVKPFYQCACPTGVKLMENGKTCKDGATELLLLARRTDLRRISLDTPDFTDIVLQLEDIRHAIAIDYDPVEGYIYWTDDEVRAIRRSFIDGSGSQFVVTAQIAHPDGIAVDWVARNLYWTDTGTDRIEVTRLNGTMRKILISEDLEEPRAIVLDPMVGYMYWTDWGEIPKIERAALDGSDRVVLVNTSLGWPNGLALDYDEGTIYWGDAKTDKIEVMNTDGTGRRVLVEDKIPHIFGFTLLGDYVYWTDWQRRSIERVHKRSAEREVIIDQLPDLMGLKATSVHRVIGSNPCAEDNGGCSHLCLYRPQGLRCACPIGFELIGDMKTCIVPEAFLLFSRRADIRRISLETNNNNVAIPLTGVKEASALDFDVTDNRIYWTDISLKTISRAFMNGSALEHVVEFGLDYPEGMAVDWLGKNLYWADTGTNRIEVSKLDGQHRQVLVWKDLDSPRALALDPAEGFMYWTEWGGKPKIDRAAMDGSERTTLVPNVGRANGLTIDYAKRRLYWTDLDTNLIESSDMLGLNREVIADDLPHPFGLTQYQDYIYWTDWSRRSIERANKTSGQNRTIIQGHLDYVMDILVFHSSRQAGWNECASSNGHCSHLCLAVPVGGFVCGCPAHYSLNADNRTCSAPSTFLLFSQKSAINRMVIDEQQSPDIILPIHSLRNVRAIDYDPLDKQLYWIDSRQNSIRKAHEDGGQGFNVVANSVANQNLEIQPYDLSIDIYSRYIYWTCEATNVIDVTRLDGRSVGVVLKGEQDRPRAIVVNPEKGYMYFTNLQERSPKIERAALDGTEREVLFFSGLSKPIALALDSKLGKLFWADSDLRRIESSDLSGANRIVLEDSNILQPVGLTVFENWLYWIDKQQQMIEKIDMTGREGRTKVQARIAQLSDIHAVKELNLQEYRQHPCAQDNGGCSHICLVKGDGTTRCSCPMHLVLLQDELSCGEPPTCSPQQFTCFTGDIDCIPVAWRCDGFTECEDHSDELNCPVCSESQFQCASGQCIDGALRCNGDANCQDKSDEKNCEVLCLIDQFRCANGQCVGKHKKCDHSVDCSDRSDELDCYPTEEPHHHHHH
In words: pull-down, His-tagged bait on Ni-NTA, AAV prey, Western blot (FIG. 21). A general note: Immunoblotting shows a protein as a band on a membrane.

Experiment [5] concerns the target T5, human GP2 (AA 1-518) triple tagged with Fc-Myc-6×His (human, UniProt P55259 29-518).
T5 construct: also called human GP2-Fc; not shown: Fc and Myc tags
In words: validated interaction (cell culture potency assay and/or SPR).

The target of experiment [6] is T3, human low-density lipoprotein …. In words: cell microarray screen hit (membrane).
Description: After these controls, the six-capsid pool was tested in a full screen of approximately 6400 proteins, including 6000 human plasma membrane proteins and secreted and cell surface-tethered proteins, as well as approximately 400 heterodimers. […] To assign these hits to specific capsids, follow-up deconvolution screens were performed with each individual capsid from the pool (FIG. 12E). DNA oligos for the 22 identified hits, as well as the positive control CD86, were affixed in duplicate locations to new slides. A negative control condition with no AAV analyte and a positive control condition with CTLA4-Fc (CD86 binder) were also included.

T5 sequence (P55259 29-518): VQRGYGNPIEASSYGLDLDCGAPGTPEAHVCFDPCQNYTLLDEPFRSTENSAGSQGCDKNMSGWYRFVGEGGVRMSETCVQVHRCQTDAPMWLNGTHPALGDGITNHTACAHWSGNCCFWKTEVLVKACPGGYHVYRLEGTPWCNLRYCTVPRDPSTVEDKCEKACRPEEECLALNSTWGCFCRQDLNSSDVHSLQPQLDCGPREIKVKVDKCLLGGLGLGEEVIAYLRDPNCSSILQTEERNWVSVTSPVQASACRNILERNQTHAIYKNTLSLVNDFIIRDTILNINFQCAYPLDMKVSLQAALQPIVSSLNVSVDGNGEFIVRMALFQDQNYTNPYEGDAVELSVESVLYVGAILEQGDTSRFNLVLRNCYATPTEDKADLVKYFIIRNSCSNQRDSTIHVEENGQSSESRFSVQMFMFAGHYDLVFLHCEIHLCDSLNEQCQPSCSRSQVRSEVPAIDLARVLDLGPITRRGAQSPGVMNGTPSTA

B1: AAV.CAP-Mac (other)
chain: MAADGYLPDWLEDNLSEGIREWWALKPGAPQPKANQQHQDNARGLVLPGYKYLGPGNGLDKGEPVNAADAAALEHDKAYDQQLKAGDNPYLKYNHADAEFQERLKEDTSFGGNLGRAVFQAKKRLLEPLGLVEEAAKTAPGKKRPVEQSPQEPDSSAGIGKSGAQPAKKRLNFGQTGDTESVPDPQPIGEPPAAPSGVGSLTMASGGGAPVADNNEGADGVGSSSGNWHCDSQWLGDRVITTSTRTWALPTYNNHLYKQISNSTSGGSSNDNAYFGYSTPWGYFDFNRFHCHFSPRDWQRLINNNWGFRPKRLNFKLFNIQVKEVTDNNGVKTIANNLTSTVQVFTDSDYQLPYVLGSAHEGCLPPFPADVFMIPQYGYLTLNDGSQAVGRSSFYCLEYFPSQMLRTGNNFQFSYEFENVPFHSSYAHSQSLDRLMNPLIDQYLYYLSRTINGSGQNQQTLKFSVAGPSNMAVQGRNYIPGPSYRQQRVSTTVTQNNNSEFAWPGASSWALNGRNSLMNPGPAMASHKEGEDRFFPLSGSLIFGKQGTGRDNVDADKVMITNEEEIKTTNPVATESYGQVATNHQSAQLNTTKPIAQAQTGWVQNQGILPGMVWQDRDVYLQGPIWAKIPHTDGNFHPSPLMGGFGMKHPPPQILIKNTPVPADPPTAFNKDKLNSFITQYSTGQVSVEIEWELQKENSKRWNPEIQYTSNYYKSNNVEFAVNTEGVYSEPRPIGTRYLTRNL
notes: also called CAP-C1
As to B1, the binding result in experiment [1] is reported as “no binding”; in experiment [2] it was “binds”; in experiment [3], “binds”; in experiment [4], “binds”.

B2: AAV9-X1.1 (other)
chain: MAADGYLPDWLEDNLSEGIREWWALKPGAPQPKANQQHQDNARGLVLPGYKYLGPGNGLDKGEPVNAADAAALEHDKAYDQQLKAGDNPYLKYNHADAEFQERLKEDTSFGGNLGRAVFQAKKRLLEPLGLVEEAAKTAPGKKRPVEQSPQEPDSSAGIGKSGAQPAKKRLNFGQTGDTESVPDPQPIGEPPAAPSGVGSLTMASGGGAPVADNNEGADGVGSSSGNWHCDSQWLGDRVITTSTRTWALPTYNNHLYKQISNSTSGGSSNDNAYFGYSTPWGYFDFNRFHCHFSPRDWQRLINNNWGFRPKRLNFKLFNIQVKEVTDNNGVKTIANNLTSTVQVFTDSDYQLPYVLGSAHEGCLPPFPADVFMIPQYGYLTLNDGSQAVGRSSFYCLEYFPSQMLRTGNNFQFSYEFENVPFHSSYAHSQSLDRLMNPLIDQYLYYLSRTIDGAATKNQTLKFSVAGPSNMAVQGRNYIPGPSYRQQRVSTTVTQNNNSEFAWPGASSWALNGRNSLMNPGPAMASHKEGEDRFFPLSGSLIFGKQGTGRDNVDADKVMITNEEEIKTTNPVATESYGQVATNHQSAQGNNTRSVAQAQTGWVQNQGILPGMVWQDRDVYLQGPIWAKIPHTDGNFHPSPLMGGFGMKHPPPQILIKNTPVPADPPTAFNKDKLNSFITQYSTGQVSVEIEWELQKENSKRWNPEIQYTSNYYKSNNVEFAVNTEGVYSEPRPIGTRYLTRNL
notes: also called AAV-X1.1; X1B10
Regarding B2, the binding result in experiment [5] is given as “binds”; in experiment [1], “no binding”; in experiment [2], “binds”; in experiment [4] it was “binds”; in experiment [6], “binds”.
